Entries after “also recorded” stand apart in the source; their conditions may differ.
Key:
TLR3 [1] = target: TLR3 (Homo sapiens, UniProt O15455); test: HEK293 hTLR3 reporter cell assay (TLR3/ISRE LUCPorter, luminometer); assay type: cell-based; settings: putative ligands at increasing concentrations, 24 h (biglycan 5, 10, 20 μg/ml)
Description: All cells were cultivated under standard conditions (37° C., supplied with 5% CO2). Passaging of the cells was performed at 70-90% confluency, and cells were only used until passage 7 as described previously^6. Polyinosinic: polycytidylic acid (Poly(I:C); Invivogen, San Diego, CA) was used to stimulate cells at a concentration of either 20 μg/mL or 5 μg/ml, depending on the assay. For blockade of TLR3, the commercially available dsRNA/TLR3 inhibitor ((R)-2-(3-Chloro-6-fluorobenzo [b] thiophene-2-carboxamido)-3-phenyl-propanoic acid) was used (Merck, Darmstadt, Germany) at a concentration of 1 μg/ml as described previously^1,7. LY294002 (Invivogen, San Diego, CA), a PI3K inhibitor, was used at a concentration of 10 μM. For blockade of IFNAR1, a specific blocking antibody (Invitrogen, Carlsbad, CA) was used at a concentration of 4 μg/ml. A stable HEK (human embryonic kidney) reporter cell line (TLR3/ISRE LUCPorter; Imgenex, USA) was purchased for luminometer assay experiments. Cells were cultivated according to the manufacturer's protocol in DMEM with 4.5 g/L glucose (Lonza, Switzerland), 10% FCS (Sigma, St. Louis, MO), penicillin/streptomycin, and 4 mM L-glutamine and […] puromycin (Gibco, USA) as selection agent. Reporter experiments were performed as described previously^8. […]

TLR3 and IFN-β = test: RT-PCR of human dermal fibroblasts (wild type, empty vector control, Tlr3−/− CRISPR); assay type: cell-based; settings: 5 μg/ml, 6 h
Source text: (§1) Human dermal fibroblasts WT and Tlr3^−/− were kindly provided by the Jean-Laurent Casanova group and cultivated in DMEM with 4.5 g/L glucose (Lonza, Basel, Switzerland), 10% FCS (Sigma, St. Louis, MO), penicillin, streptomycin and L-Glutamine. Human dermal fibroblasts CTR cells were provided by the Villunger group and cultivated in DMEM with 4.5 g/L glucose (Lonza, Basel, Switzerland), 10% FCS (Sigma, St. Louis, MO), penicillin, streptomycin and L-Glutamine.
(§2) All cells were cultivated under standard conditions (37° C., supplied with 5% CO2). Passaging of the cells was performed at 70-90% confluency, and cells were only used until passage 7 as described previously^6. Polyinosinic: polycytidylic acid (Poly(I:C); Invivogen, San Diego, CA) was used to stimulate cells at a concentration of either 20 μg/mL or 5 μg/ml, depending on the assay. For blockade of TLR3, the commercially available dsRNA/TLR3 inhibitor ((R)-2-(3-Chloro-6-fluorobenzo [b] thiophene-2-carboxamido)-3-phenyl-propanoic acid) was used (Merck, Darmstadt, Germany) at a concentration of 1 μg/ml as described previously^1,7. LY294002 (Invivogen, San Diego, CA), a PI3K inhibitor, was used at a concentration of 10 μM. For blockade of IFNAR1, a specific blocking antibody (Invitrogen, Carlsbad, CA) was used at a concentration of 4 μg/ml. A stable HEK (human embryonic kidney) reporter cell line (TLR3/ISRE LUCPorter; Imgenex, USA) was purchased for luminometer assay experiments. Cells were cultivated according to the manufacturer's protocol in DMEM with 4.5 g/L glucose (Lonza, Switzerland), 10% FCS (Sigma, St. Louis, MO), penicillin/streptomycin, and 4 mM L-glutamine and […] puromycin (Gibco, USA) as selection agent. Reporter experiments were performed as described previously^8. For the protein expression SF21 cells were purchased at ThermoFisher (#11497013) and cultivated in Gibco™ Sf-900™ SFM supplemented with penicillin, streptomycin and L-Glutamine. In vitro stretch was applied using a Flexcell bioreactor (Flexcell International Corporation, Burlington, NC) applying 15% cyclic strain as described previously^9.
RT-PCR was performed as described previously^17. Total RNA was extracted from homogenized tissue or cell lysates using the Total RNA Miniprep Kit (New England BioLabs, Frankfurt, Germany) according to the manufacturer's instructions. We performed the PCR reaction in a final volume of 12.5 μL containing 2.5 μL of cDNA, 6.25 μL of Master Mix, 1 μL of fluorogenic hybridization probe, 10 μM of primer and 2.75 μL of distilled water. […] The result for the relative gene expression was calculated by the 2-DDCt method. Mean Ct values were calculated from double determinations and samples were considered negative if the Ct values exceeded 4017. […]

TLR3-RUNX2 pathway = test: Immunoblot of human dermal fibroblasts for the TLR3-RUNX2 pathway; assay type: cell-based; settings: wild type and empty vector control cells; 5 μg/ml, 6 h
Source text: as §1, §2
Protein from tissue or cell lysates was extracted using a Radioimmunoprecipitation Assay Lysis Puffer (150 mM NaCl, 1% NP-40, 0.5% Sodium Deoxycholate, 0.1% SDS and 50 mM Tris (pH 8,0)). For the extraction of nuclear or cytosolic proteins the NE-PER™ Nuclear and Cytoplasmic Extraction Reagents Kit (ThermoScientific, #78835) was used.
Protein was thereafter separated on SDS-polyacrylamide gels of different percentages and transferred to nitrocellulose membranes as described previously^18. After blocking with either 5% BSA in TBS 0.1% Tween, 5% milk in TBS 0.1% Tween or StartingBlock™ (TBS) Blocking buffer (ThermoScientific, #37542) membranes were incubated with primary antibodies listed in Table 2.

TLR3 [2] = test: TLR3 expression in valvular interstitial cells (immunoblot / RT-qPCR); assay type: cell-based, human; settings: immunoblot; 20 μg/ml, 24 h or 48 h (FIG. 7A)
Description: Valvular interstitial cells from patients undergoing aortic valve replacement or cardiac transplantation were isolated via collagen digestion as described previously^6. Valves were rinsed in EBSS and subsequently subjected to collagenase digestion (Sigma, St. Louis, MO; 2.5 mg/mL in M199) for 30 minutes at 37° C. Thereafter, tissue samples were vortexed and supernatant containing endothelial cells was removed. Again, collagenase was added to the remaining valve tissue (1 mg/mL) for 3 h at 37° C. For mechanical disintegration of the tissue, vortexing and repeated aspiration via a pipette was performed. The supernatant was transferred into a new tube and subjected to centrifugation (300 g for 8 minutes at 4° C.). Subsequently, cells were resuspended in M199 medium containing 10% fetal calve serum, penicillin, streptomycin, L-Glutamine and amphotericin B (2.5 mg/L).
All cells were cultivated under standard conditions (37° C., supplied with 5% CO2). Passaging of the cells was performed at 70-90% confluency, and cells were only used until passage 7 as described previously^6. […]
RT-PCR was performed as described previously^17. […] The result for the relative gene expression was calculated by the 2-DDCt method. Mean Ct values were calculated from double determinations and samples were considered negative if the Ct values exceeded 4017. […]

[3] = target: T1, human TLR3 ectodomain (huTLR3-ECD) (Homo sapiens, UniProt O15455); test: In vitro binding by size exclusion chromatography and immunoblot; settings: chondroitinase ABC digested BGN incubated with TLR3 ECD
T1 construct: The human TLR3-ECD (27-700) was modified with an N-terminal gb67 leader and a C-terminal 6× poly histidine tag; gb67 (gp67) secretion leader (N); 6xHis (C); made in house; host or cells: Sf21 insect cells (baculovirus, pFastBac1, Bac-to-Bac)

B1: BGN: proteoglycan biglycan (BGN), a structural protein of the extracellular matrix (ECM) (protein)
chain: DEEASGAETTSGIPDLDSLPPTYSAMCPFGCHCHLRVVQCSDLGLKAVPKEISPDTTLLDLQNNDISELRKDDFKGLQHLYALVLVNNKISKIHEKAFSPLRKLQKLYISKNHLVEIPPNLPSSLVELRIHDNRIRKVPKGVFSGLRNMNCIEMGGNPLENSGFEPGAFDGLKLNYLRISEAKLTGIPKDLPETLNELHLDHNKIQAIELEDLLRYSKLYRLGLGHNQIRMIENGSLSFLPTLRELHLDNNKLSRVPAGLPDLKLLQVVYLHTNNITKVGVNDFCPVGFGVKRAYYNGISLFNNPVPYWEVQPATFRCVTDRLAIQFGNYKK
For B1, the “activation of TLR3 reporter cells” value (TLR3 [1]) was “activated TLR3 reporter cells in a dose-dependent fashion”, the “transcription of TLR3 and IFN-β” value (TLR3 and IFN-β; Tlr3−/− fibroblasts) was “no response” and the “transcription of TLR3 and IFN-β” value (TLR3 and IFN-β; wild type and empty vector control fibroblasts) was “induced transcription of TLR3 and IFN-β”. The IFNAR1 level (TLR3-RUNX2 pathway) was “upregulation of IFNAR1”, the “levels of osteoblastic transcription factor RUNX2” value (TLR3-RUNX2 pathway) was “increased levels” and the “phosphorylation of IRF3” value (TLR3-RUNX2 pathway) was “phosphorylation of IRF3”. The “TLR3 expression in VICs” value (TLR3 [2]) was “induces TLR3 expression in a dose-dependent manner; also recorded: induced TLR3 expression in VICs”, the “binding to huTLR3-ECD by size-exclusion chromatography followed by immunoblotting” value [3] was “co-elution” and the “binding to huTLR3-ECD by size-exclusion chromatography followed by immunoblotting” value ([3]; listed as huBGN) was “weak binding interaction”.
